B1: SL3-2GI (protein)
chain: VQHDSPHQVFNVTWRVTNLMTGQTANATSLLGTMTDAFPKLYFDLCDLIGDDWDETGLGCRTPGGRKRARIFDFYVCPGHTVLAGCGGPREGYCGKWGCETTGQAYWKPSSSWDLISLKRGNTPKGQGPCYDSSVVSSSAQGATPGGRCNPLVLEFTDAGKRASWDASKAWGLRLYRSTGIDPVTRFSLTRQVLNIGPRVPIGPNPVIIDQLPPSRPVQIMLPRPPQPPPPGAASTVPETAPPSQQPGTGDRLLNLVNGAYQALNLTSPDKTQECWLCLVAGPPYYEGVAVLGTYSNHTSAPANCSVASQHKLTLSEVTGQGLCVGAVPKTHQALCNTTQKTSNGSYYLAAPAGTIWACNTGLTPCLSTTVLDLTTDYCVLVELWPKVTYHSPGYVYGQFEEKTKYKREPVSLTLALLLGGLTMGGIAAGVGTGTTALVATQQFQQLQAAMQDDLKEVKKSITNLERSLTSLSEVVLQNRRGLDLLFLKEGGLCAALKEECCFYADHTGLVRDSMAKLRERLSQRQKLFESQQGWFEGLFNKSPWFTTLISTIMGPLIILLLILLFGPCILNHLVQFIKDRVSVVQALVLTQQYHQLKTIEDCESRE

Experiments:
NIH 3T3 = experiment: Titer (transduction) of chimeric envelope constructs on NIH 3T3 cells; format: cell-based, mouse; details: qualitative; FIG. 12
Procedure: (§1) Transfections were done by calcium phosphate precipitation method, described by Graham and van der Eb (Graham and van der Eb, 1973) leaving the calcium precipitate on the cells for 24 hours. 293T cells were transfected using 8 μg of envelope expression plasmid, 2 μg gagpol expression plasmid (Morita et al., 2000) and 1 μg of an EGFP expressing plasmid. EGFP was included as a visual aid to determine the success of transfections. Medium on the transfected cells was renewed every day until it was used for transduction, usually between 48 and 72 hours after transfection, depending on the number of green fluorescing cells.
(§2) The day before transduction, medium was changed from fetal calf serum to newborn calf serum containing medium. Semi-packaging cells (Bahrami et al., 2003) were seeded at concentration of 10^4 cells/cm^2 24 hours before transduction.
(§3) Supernatant from transfected cells was filtered (0.22μ). The supernatant with 6 μg/mL polybrene was added to the target cells. 24 hours later, the infected cells were selected using medium described before containing 600 μg/mL G418 for 10 days.

CXCR4 = molecular target: T1, CXCR4 (Homo sapiens, UniProt P61073); experiment: Flow cytometry of cell surface expression of CXCR4 on transduced D17 CD4 CXCR4 cells; format: cell-based; details: D17 CD4 CXCR4 cells transduced with envelope vector; FIG. 6
T1 construct: expressed in transfected cells; host or cells: D17 (dog) cells carrying CD4 and CXCR4
Procedure: Method: Flow cytometric analysis was carried out of Cell Surface Expression (CSE) of CXCR4 of cells transduced with vectors comprising the chimeric envelope polypeptide of the present invention. D17 CD4 CXCR4 cells were transduced with a vector expressing SL3-2 envelope with V3 loop inserted at positions indicated.
[…]; 315:51-61). The virus containing supernatant was subsequently used to transduce the D17 CXCR4CD4 cells.
Six chimeric variants have been tested (sequences used shown in SEQ ID NO: 3-8 and 42-47). In all panels the control D17 CD4 CXCR4 cells with […] envelope only (without the V3 insert) was tested against the same envelope comprising a V3 loop variant.
Protocol for flow cytometry: • Harvest cells (by nice trypzination) and spin down gently (1200 rpm, 5 min) • Keep cells on ice in all subsequent steps. • Wash once in wash buffer (2% Serum, 98% PBS—cold) ? […]

D17 = experiment: Titer on D17 dog cells; format: cell-based; details: qualitative
Procedure: as §1, §2, §3

human cells = experiment: Infection of human cells; format: cell-based; details: qualitative

T1 sequence (P61073 whole entry): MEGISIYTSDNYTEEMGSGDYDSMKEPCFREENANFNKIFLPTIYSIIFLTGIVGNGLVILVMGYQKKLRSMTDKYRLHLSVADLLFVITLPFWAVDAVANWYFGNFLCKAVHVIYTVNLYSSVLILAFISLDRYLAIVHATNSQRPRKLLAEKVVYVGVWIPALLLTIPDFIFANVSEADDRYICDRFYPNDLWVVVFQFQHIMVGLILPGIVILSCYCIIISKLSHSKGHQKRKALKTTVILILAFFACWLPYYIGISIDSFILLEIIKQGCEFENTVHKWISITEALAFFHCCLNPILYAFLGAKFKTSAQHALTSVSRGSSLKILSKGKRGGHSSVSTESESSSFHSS

| Molecule | Infection of NIH mouse cells (NIH 3T3) | Binding of anti CXCR-4 antibody / CXCR-4 cell surface expression level (CXCR4) | Infection of dog cells (D17) | Infection of human cells (human cells) |
| --- | --- | --- | --- | --- |
| wild-type SL3-2: SL3-2 murine leukaemia virus envelope polypeptide (SEQ ID NO: 2 / 60) [reference compound] | can be infected | does not affect the expression levels of CXCR-4 | – | – |
| B1 | – | – | not dog cells | infects human cells |
